The target of the data set is Insulin (UniProt P01308+P01308). Description: flow. The note with it: dT replaced by C8-alkyne-dU clicked with phenylalanine azide (positions incorporated by polymerase); bead-based assay, buffer.
Chain of Insulin (P01308 25-54, chain 1 of 2): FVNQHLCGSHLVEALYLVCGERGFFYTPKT
Chain of Insulin (P01308 90-110, chain 2 of 2): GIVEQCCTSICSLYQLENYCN

Sequence “GCGCATACCAGCTTATTCAATCGTCGAGAACTCCTCCGGCTCTAACTCCGATTATAGCCAAAGATAGTAAGTGCAATCTCGGC [Ins24]” registered a Kd of 2560 nM. This lies in the single-digit micromolar range.

In general, Kd refers to a measure of binding affinity in units of concentration.

The values above are taken from patent US20210324374.
